The record followed here is publication PMC3097235.

The chains are these.
B1: human tyrosinase: Δall (protein)
parent chain: MLLAVLYCLLWSFQTSAGHFPRACVSSKNLMEKECCPPWSGDRSPCGQLSGRGSCQNILLSNAPLGPQFPFTGVDDRESWPSVFYNRTCQCSGNFMGFNCGNCKFGFWGPNCTERRLLVRRNIFDLSAPEKDKFFAYLTLAKHTISSDYVIPIGTYGQMKNGSTPMFNDINIYDLFVWMHYYVSMDALLGGSEIWRDIDFAHEAPAFLPWHRLFLLRWEQEIQKLTGDENFTIPYWDWRDAEKCDICTDEYMGGQHPTNPNLLSPASFFSSWQIVCSRLEEYNSHQSLCNGTPEGPLRRNPGNHDKSRTPRLPSSADVEFCLSLTQYESGSMDKAANFSFRNTLEGFASPLTGIADASQSSMHNALHIYMNGTMSQVQGSANDPIFLLHHAFVDSIFEQWLRRHRPLQEVYPEANAPIGHNRESYMVPFIPLYRNGDFFISSKDLGYDYSYLQDSDPDSFQDYIKSYLEQASRIWSWLLGAAMVGAVLTALLAGLVSLLCRHKRKQLPEEKQPLLMEKEDYHSLYQSHL
B2: human tyrosinase: Δ(5,6,7) (protein)
parent chain: B1 parent chain
B3: human tyrosinase: Δ7 (protein)
parent chain: B1 parent chain
B4: human tyrosinase: Δ2 (protein)
parent chain: B1 parent chain
B5: human tyrosinase: Δ3 (protein)
parent chain: B1 parent chain
B6: human tyrosinase: Δ6 (protein)
parent chain: B1 parent chain
B7: human tyrosinase: Δ4 (protein)
parent chain: B1 parent chain
B8: human tyrosinase: Δ1 (protein)
parent chain: B1 parent chain
B9: human tyrosinase: kifunensine (protein)
parent chain: B1 parent chain

One data set can be described thus: pulse-chase IP with or without kifunensine. Particulars: glycan lost; control: wild type (accumulates with kifunensine).
As for B1, the “other: kifunensine rescue from degradation” value is “abolishes”.
The same measure, in the same setting: to B2 belongs “decreases”; to B3, “no change”.

The nature of another data set: immunofluorescence co-localisation with ER marker calnexin. To be noted: glycan lost; control: wild type.
Turning to B4, the localisation_or_trafficking entry is on record as “changes”.
B5: the localisation_or_trafficking result was “changes”.
For the protein B3, the localisation_or_trafficking entry is listed as “changes”.
On the same count and under the same terms, the same measure for B6: “changes”.
Take B7: the localisation_or_trafficking result is recorded as “changes”.
In the case of B8, the localisation_or_trafficking entry is “changes”.

The nature of another data set: pulse-chase, DTT accessibility of disulfides, non-reducing SDS-PAGE. Particulars: glycan lost; control: wild type.
As to B3, the stability_or_folding result was “decreases”.

A short description of a further data set: pulse-chase IP of wild type, degradation. To be noted: glycan changed form; control: untreated.
On to B9, for which the degradation_or_half_life entry is given as “increases”.

A short description of the next data set: immunofluorescence co-localisation with ERGIC-53, nocodazole-treated cells. Particulars: glycan lost; control: wild type.
Take B4: the localisation_or_trafficking entry is “no change”.
On the same count and under the same terms, the same measure for B5: “no change”.
Same read-out and setting: the same measure for B3: “no change”.
The same measure, in the same setting: the same measure for B6: “no change”; for B7: “no change”; for B8: “no change”.

A short description of a further data set: Endo H resistance (ER exit), immunoblot. To be noted: glycan lost; control: wild type. (In general: A western blot detects proteins with antibodies after separation by electrophoresis.)
Regarding B4, the localisation_or_trafficking entry is on record as “abolishes”.
Still for that read-out and setting: to B5 belongs “abolishes”; to B3, “abolishes”.
Same read-out and setting: the same measure for B6: “abolishes”.
Same read-out and setting: to B7 belongs “abolishes”.
For B8, the localisation_or_trafficking result was “decreases”.

Another data set can be described thus: DOPA oxidase recovery after culture at 31°C. Particulars: glycan lost; control: wild type.
Regarding B4, the stability_or_folding result is on record as “decreases”.
Regarding B5, the stability_or_folding result is given as “decreases”.
Same read-out and setting: to B3 belongs “abolishes”.
B6: the stability_or_folding result is on record as “decreases”.
Regarding B7, the stability_or_folding result is recorded as “decreases”.
For B8, the stability_or_folding result is listed as “decreases”.

A short description of another data set: DOPA oxidase specific activity, cells at 37°C. To be noted: glycan lost; control: wild type.
In the case of B4, the “enzymatic_activity, percent_of_wt” value is reported as “decreases, The remaining mutants show intermediate activity, ranging from 25% to 30%”.
Same read-out and setting: to B5 belongs “decreases, The remaining mutants show intermediate activity, ranging from 25% to 30%”; to B3, “abolishes”; to B6, “abolishes”.
The same measure, in the same setting: the same measure for B7: “decreases, The remaining mutants show intermediate activity, ranging from 25% to 30%”; for B8: “decreases, The remaining mutants show intermediate activity, ranging from 25% to 30%”.
